What all share (test): SEC; purified, untagged mature regions of the proteins analysed by size exclusion chromatography; SDS-PAGE with and without β-mercaptoethanol was run alongside
The target in data set [1] is Bacillus licheniformis BslA(40-179) (Bacillus licheniformis DSM13).
The target in data set [2] is Bacillus pumilus BslA(37-177) (Bacillus pumilus SAFR-032).
Data set [3] deals with Bacillus amyloliquefaciens BslA(42-181) (Bacillus amyloliquefaciens FZB42).
Data set [4] deals with the molecule itself.

The values that follow come from article PMC5532214, “Natural variations in the biofilm-associated protein BslA from the genus Bacillus” (Scientific Reports, 2017).

Broadly, the stoichiometry N is a count of units in the complex or per binding partner. Consider “Bacillus licheniformis BslA(40-179) (domain or fragment)”, for which, in data set [1], the stoichiometry N worked out at 2.
For “Bacillus pumilus BslA(37-177) (domain or fragment)”, the stoichiometry N in data set [2] turned out to be 2.
With “Bacillus amyloliquefaciens BslA(42-181) (domain or fragment)”, the stoichiometry N in data set [3] is 2.

B1: Bacillus subtilis BslA(42-181) (domain or fragment, B. subtilis, UniProt P71014 42-181, looked up)
chain: MRTQSTASLFATITGASKTEWSFSDIELTYRPNTLLSLGVMEFTLPSGFTANTKDTLNGNALRTTQILNNGKTVRVPLALDLLGAGEFKLKLNNKTLPAAGTYTFRAENKSLSIGNKFYAEASIDVAKRSTPPTQPCGCN
notes: BslA of Bacillus subtilis, truncated protein BslA 42-181 (mature region), on which the previous analyses were based; also called Bs-BslA; source: E. coli BL21 (DE3) pLysS, purified (Glutathione Sepharose, TEV cleavage, SEC)
For the molecule B1, the “stoichiometry N” value in data set [4] was found to be 2.
